Target: T1, CD3 epsilon homodimer protein (UniProt P07766 23-126)
T1 construct: construct not described; homodimer as printed; also called CD3 (CD3 epsilon)
Assay: SPR Biacore T200, CD3 epsilon homodimer immobilized; vs unaltered GLS3000;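 note: antibody variants flowed as analyte over CD3 epsilon homodimer amine-coupled to a CM4 chip, at 25 °C in HBS-EP+ running buffer, fitted with Biacore T200 Evaluation Software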

T1 sequence (P07766 23-126): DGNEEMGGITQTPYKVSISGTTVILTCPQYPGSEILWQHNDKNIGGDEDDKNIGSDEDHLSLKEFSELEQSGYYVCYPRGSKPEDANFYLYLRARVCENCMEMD

Binder | KD ratio to GLS3000 (Affinity up)
GLS3000 N28A (Kabat) L chain altered form, one-arm antibody with CE115HA000 (antibody, human IgG1, kappa, L234A L235A, N297A, name in Kabat numbering, one-arm antibody) heavy: QVQLVESGGGVVQPGRSLRLSCAASGFTFSNAWMHWVRQAPGKGLEWVAQIKAKSNNYATYYAESVKGRFTISRDDSKNSLYLQMNSLKTEDTAVYYCRYVHYGAYYGVDAWGQGTTVTVSSASTKGPSVFPLAPSSKSTSGGTAALGCLVKDYFPEPVTVSWNSGALTSGVHTFPAVLQSSGLYSLSSVVTVPSSSLGTQTYICNVNHKPSNTKVDKKVEPKSCDKTHTCPPCPAPEAAGGPSVFLFPPKPKDTLMISRTPEVTCVVVDVSHEDPEVKFNWYVDGVEVHNAKTKPREEQYASTYRVVSVLTVLHQDWLNGKEYKCKVSNKALPAPIEKTISKAKGQPREPQVYTLPPSRCELTKNQVSLSCAVKGFYPSDIAVEWESNGQPENNYKTTPPVLDSDGSFFLVSKLTVDKSRWQQGNVFSCSVMHEALHNHYTQKSLSLSPDYKDDDDK EPKSSDKTHTCPPCPAPELLGGPSVFLFPPKPKDTLMISRTPEVTCVVVDVSHEDPEVKFNWYVDGVEVHNAKTKPREEQYNSTYRVVSVLTVLHQDWLNGKEYKCKVSNKALPAPIEKTISKAKGQPREPQVCTLPPSRDELTKNQVSLWCLVKGFYPSDIAVEWESNGQPENNYKTTPPVLDSDGSFFLYSKLTVDKSRWQQGNVFSCSVMHEALHNRYTQKSLSLSP light: DIVMTQSPLSLPVTPGEPASISCRSSQSLVHSARNTYLHWYQQKPGQAPRLLIYKVSNRFSGVPDRFSGSGSGTDFTLKISRVEAEDVGVYYCGQGTQVPYTFGQGTKLEIKRTVAAPSVFIFPPSDEQLKSGTASVVCLLNNFYPREAKVQWKVDNALQSGNSQESVTEQDSKDSTYSLSSTLTLSKADYEKHKVYACEVTHQGLSSPVTKSFNRGEC | 4.18
GLS3000 N28E (Kabat) L chain altered form, one-arm antibody with CE115HA000 (antibody, human IgG1, kappa, L234A L235A, N297A, name in Kabat numbering, one-arm antibody) heavy: QVQLVESGGGVVQPGRSLRLSCAASGFTFSNAWMHWVRQAPGKGLEWVAQIKAKSNNYATYYAESVKGRFTISRDDSKNSLYLQMNSLKTEDTAVYYCRYVHYGAYYGVDAWGQGTTVTVSSASTKGPSVFPLAPSSKSTSGGTAALGCLVKDYFPEPVTVSWNSGALTSGVHTFPAVLQSSGLYSLSSVVTVPSSSLGTQTYICNVNHKPSNTKVDKKVEPKSCDKTHTCPPCPAPEAAGGPSVFLFPPKPKDTLMISRTPEVTCVVVDVSHEDPEVKFNWYVDGVEVHNAKTKPREEQYASTYRVVSVLTVLHQDWLNGKEYKCKVSNKALPAPIEKTISKAKGQPREPQVYTLPPSRCELTKNQVSLSCAVKGFYPSDIAVEWESNGQPENNYKTTPPVLDSDGSFFLVSKLTVDKSRWQQGNVFSCSVMHEALHNHYTQKSLSLSPDYKDDDDK EPKSSDKTHTCPPCPAPELLGGPSVFLFPPKPKDTLMISRTPEVTCVVVDVSHEDPEVKFNWYVDGVEVHNAKTKPREEQYNSTYRVVSVLTVLHQDWLNGKEYKCKVSNKALPAPIEKTISKAKGQPREPQVCTLPPSRDELTKNQVSLWCLVKGFYPSDIAVEWESNGQPENNYKTTPPVLDSDGSFFLYSKLTVDKSRWQQGNVFSCSVMHEALHNRYTQKSLSLSP light: DIVMTQSPLSLPVTPGEPASISCRSSQSLVHSERNTYLHWYQQKPGQAPRLLIYKVSNRFSGVPDRFSGSGSGTDFTLKISRVEAEDVGVYYCGQGTQVPYTFGQGTKLEIKRTVAAPSVFIFPPSDEQLKSGTASVVCLLNNFYPREAKVQWKVDNALQSGNSQESVTEQDSKDSTYSLSSTLTLSKADYEKHKVYACEVTHQGLSSPVTKSFNRGEC | 5.47
GLS3000 N28F (Kabat) L chain altered form, one-arm antibody with CE115HA000 (antibody, human IgG1, kappa, L234A L235A, N297A, name in Kabat numbering, one-arm antibody) heavy: QVQLVESGGGVVQPGRSLRLSCAASGFTFSNAWMHWVRQAPGKGLEWVAQIKAKSNNYATYYAESVKGRFTISRDDSKNSLYLQMNSLKTEDTAVYYCRYVHYGAYYGVDAWGQGTTVTVSSASTKGPSVFPLAPSSKSTSGGTAALGCLVKDYFPEPVTVSWNSGALTSGVHTFPAVLQSSGLYSLSSVVTVPSSSLGTQTYICNVNHKPSNTKVDKKVEPKSCDKTHTCPPCPAPEAAGGPSVFLFPPKPKDTLMISRTPEVTCVVVDVSHEDPEVKFNWYVDGVEVHNAKTKPREEQYASTYRVVSVLTVLHQDWLNGKEYKCKVSNKALPAPIEKTISKAKGQPREPQVYTLPPSRCELTKNQVSLSCAVKGFYPSDIAVEWESNGQPENNYKTTPPVLDSDGSFFLVSKLTVDKSRWQQGNVFSCSVMHEALHNHYTQKSLSLSPDYKDDDDK EPKSSDKTHTCPPCPAPELLGGPSVFLFPPKPKDTLMISRTPEVTCVVVDVSHEDPEVKFNWYVDGVEVHNAKTKPREEQYNSTYRVVSVLTVLHQDWLNGKEYKCKVSNKALPAPIEKTISKAKGQPREPQVCTLPPSRDELTKNQVSLWCLVKGFYPSDIAVEWESNGQPENNYKTTPPVLDSDGSFFLYSKLTVDKSRWQQGNVFSCSVMHEALHNRYTQKSLSLSP light: DIVMTQSPLSLPVTPGEPASISCRSSQSLVHSFRNTYLHWYQQKPGQAPRLLIYKVSNRFSGVPDRFSGSGSGTDFTLKISRVEAEDVGVYYCGQGTQVPYTFGQGTKLEIKRTVAAPSVFIFPPSDEQLKSGTASVVCLLNNFYPREAKVQWKVDNALQSGNSQESVTEQDSKDSTYSLSSTLTLSKADYEKHKVYACEVTHQGLSSPVTKSFNRGEC | 2.59
GLS3000 N28D (Kabat) L chain altered form, one-arm antibody with CE115HA000 (antibody, human IgG1, kappa, L234A L235A, N297A, name in Kabat numbering, one-arm antibody) heavy: QVQLVESGGGVVQPGRSLRLSCAASGFTFSNAWMHWVRQAPGKGLEWVAQIKAKSNNYATYYAESVKGRFTISRDDSKNSLYLQMNSLKTEDTAVYYCRYVHYGAYYGVDAWGQGTTVTVSSASTKGPSVFPLAPSSKSTSGGTAALGCLVKDYFPEPVTVSWNSGALTSGVHTFPAVLQSSGLYSLSSVVTVPSSSLGTQTYICNVNHKPSNTKVDKKVEPKSCDKTHTCPPCPAPEAAGGPSVFLFPPKPKDTLMISRTPEVTCVVVDVSHEDPEVKFNWYVDGVEVHNAKTKPREEQYASTYRVVSVLTVLHQDWLNGKEYKCKVSNKALPAPIEKTISKAKGQPREPQVYTLPPSRCELTKNQVSLSCAVKGFYPSDIAVEWESNGQPENNYKTTPPVLDSDGSFFLVSKLTVDKSRWQQGNVFSCSVMHEALHNHYTQKSLSLSPDYKDDDDK EPKSSDKTHTCPPCPAPELLGGPSVFLFPPKPKDTLMISRTPEVTCVVVDVSHEDPEVKFNWYVDGVEVHNAKTKPREEQYNSTYRVVSVLTVLHQDWLNGKEYKCKVSNKALPAPIEKTISKAKGQPREPQVCTLPPSRDELTKNQVSLWCLVKGFYPSDIAVEWESNGQPENNYKTTPPVLDSDGSFFLYSKLTVDKSRWQQGNVFSCSVMHEALHNRYTQKSLSLSP light: DIVMTQSPLSLPVTPGEPASISCRSSQSLVHSDRNTYLHWYQQKPGQAPRLLIYKVSNRFSGVPDRFSGSGSGTDFTLKISRVEAEDVGVYYCGQGTQVPYTFGQGTKLEIKRTVAAPSVFIFPPSDEQLKSGTASVVCLLNNFYPREAKVQWKVDNALQSGNSQESVTEQDSKDSTYSLSSTLTLSKADYEKHKVYACEVTHQGLSSPVTKSFNRGEC | 4460
